Assay results as given in paper PMC11210195.
pKd: −log10 of the molar value.

Legend:
Assay in all cases: SPR; Biacore T200, C1 chip, 25 °C, HBS-EP+ (10 mM HEPES, 150 mM NaCl, 3 mM EDTA, 0.05% P20, pH 7.4); antibody Fc variants captured via anti-human Fab-kappa nanobody (about 60 RU), Fc only variants amine-coupled (60-80 RU), cytokine-Fc fusions captured via anti-PGLALA F(ab')2 (35-40 RU); PRYSPRY domain injected in five two-fold dilutions from 500, 1000 or 2000 nM; global fit, Langmuir 1:1, affinity mode
Briakinumab (human) = biological target: Briakinumab (human)
[1] = biological target: Fc WT (Fc-only variant, human IgG1 core hinge-CH2-CH3, wild type) (human)
[2] = biological target: anti-AAV2 capsid antibody A20 WT (bivalent, human IgG1 Fc WT) (human)
[3] = biological target: mAb1 HH (human IgG1, T307H, N434H) (human)
[4] = biological target: mAb1 HH-AAA (asymmetrical human IgG1, one Fc heavy chain HH, the other AAA) (human)
[5] = biological target: mAb1 WT-AAA (asymmetrical human IgG1, one Fc heavy chain H310A, H433A, Y436A) (human)
[6] = biological target: mAb1 YTE (human IgG1, M252Y, S254T, T256E) (human)
[7] = biological target: mAb1 YTE-AAA (asymmetrical human IgG1, one Fc heavy chain YTE, the other AAA) (human)
[8] = biological target: mAb2 WT-AAA (asymmetrical human IgG1, one Fc heavy chain H310A, H433A, Y436A) (human)

Sequence of anti-AAV2 capsid antibody A20 WT (bivalent, human IgG1 Fc WT) (human) (heavy, as listed by the source, chain 1 of 2): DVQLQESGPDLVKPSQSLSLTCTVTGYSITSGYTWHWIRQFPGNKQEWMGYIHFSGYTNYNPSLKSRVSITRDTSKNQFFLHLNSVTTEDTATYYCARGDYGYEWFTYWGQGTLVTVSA
Sequence of anti-AAV2 capsid antibody A20 WT (bivalent, human IgG1 Fc WT) (human) (light, as listed by the source, chain 2 of 2): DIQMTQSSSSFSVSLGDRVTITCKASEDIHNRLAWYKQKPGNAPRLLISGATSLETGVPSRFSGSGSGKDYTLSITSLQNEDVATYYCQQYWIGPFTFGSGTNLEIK
Sequence of TRIM21 PRYSPRY domain (P19474 277-475): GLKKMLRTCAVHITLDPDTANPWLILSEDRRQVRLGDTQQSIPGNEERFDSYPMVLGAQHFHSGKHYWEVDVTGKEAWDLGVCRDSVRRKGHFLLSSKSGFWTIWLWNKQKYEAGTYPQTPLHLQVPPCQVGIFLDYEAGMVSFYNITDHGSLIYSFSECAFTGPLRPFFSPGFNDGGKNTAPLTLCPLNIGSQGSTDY
Sequence of Briakinumab (human) (heavy, as listed by the source, chain 1 of 2): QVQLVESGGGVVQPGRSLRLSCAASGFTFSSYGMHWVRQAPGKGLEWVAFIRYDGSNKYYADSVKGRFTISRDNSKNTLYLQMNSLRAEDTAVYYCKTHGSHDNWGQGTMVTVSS
Sequence of Briakinumab (human) (light, as listed by the source, chain 2 of 2): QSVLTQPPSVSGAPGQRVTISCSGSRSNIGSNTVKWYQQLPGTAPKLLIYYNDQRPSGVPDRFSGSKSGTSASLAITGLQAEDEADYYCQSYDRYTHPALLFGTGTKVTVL

## TRIM21 PRYSPRY domain (from UniProt P19474-1 277-475) (domain or fragment)
Briakinumab (human)
  pKd: 7.28
  koff: 0.115 s⁻¹
  kon: 2.2e+06 M⁻¹ s⁻¹
[1]
  pKd: 7.19
  koff: 0.102 s⁻¹
  kon: 1.57e+06 M⁻¹ s⁻¹
[2]
  pKd: 7.34
  koff: 0.0876 s⁻¹
  kon: 1.92e+06 M⁻¹ s⁻¹
[3]
  pKd: 7.00
  koff: 0.477 s⁻¹
  kon: 4.74e+06 M⁻¹ s⁻¹
[4]
  pKd: 6.92
  koff: 0.434 s⁻¹
  kon: 3.63e+06 M⁻¹ s⁻¹
[5]
  kon: 2.66e+06 M⁻¹ s⁻¹
[6]
  pKd: 7.13
  koff: 0.16 s⁻¹
  kon: 2.14e+06 M⁻¹ s⁻¹
[7]
  pKd: 7.03
  koff: 0.189 s⁻¹
  kon: 2.04e+06 M⁻¹ s⁻¹
[8]
  pKd: 7.41
  koff: 0.0901 s⁻¹
  kon: 2.34e+06 M⁻¹ s⁻¹
